Measurements reported in US20210395360A1 (published 2021).
Positions count from the first letter of the chain named. Read-outs that look alike come from different tables or passages of the source. Blank lines part the entries; values can stand above or below the binder they belong to.

Experiments:
[1] = biological target: T1, mouse Sp35 in cell lysate (immunoprecipitation, Western) (mouse, UniProt Q9D1T0 36-614, limits assumed); assay: IP
T1 construct: also called mSp35; mLINGO-1
T1 sequence (looked up): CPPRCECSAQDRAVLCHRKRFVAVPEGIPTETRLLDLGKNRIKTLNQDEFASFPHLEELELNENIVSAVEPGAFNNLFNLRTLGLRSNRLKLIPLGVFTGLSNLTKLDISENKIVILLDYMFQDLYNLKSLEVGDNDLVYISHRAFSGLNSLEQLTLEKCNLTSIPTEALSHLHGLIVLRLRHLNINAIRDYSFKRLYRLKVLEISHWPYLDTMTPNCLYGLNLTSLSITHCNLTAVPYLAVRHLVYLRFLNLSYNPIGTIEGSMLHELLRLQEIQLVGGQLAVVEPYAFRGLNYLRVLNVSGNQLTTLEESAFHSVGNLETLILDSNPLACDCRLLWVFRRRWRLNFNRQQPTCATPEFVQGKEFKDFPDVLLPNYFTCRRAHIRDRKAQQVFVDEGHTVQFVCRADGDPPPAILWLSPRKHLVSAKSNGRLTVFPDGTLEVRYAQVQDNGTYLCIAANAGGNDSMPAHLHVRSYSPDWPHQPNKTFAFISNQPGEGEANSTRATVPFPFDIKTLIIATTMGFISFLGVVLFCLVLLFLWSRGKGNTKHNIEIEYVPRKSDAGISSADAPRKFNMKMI

[2] = biological target: mouse Sp35 protein expressed on transfected cells (mouse) (UniProt Q9D1T0); assay: FACS, stable CHO
[3] = biological target: T2, Sp35-Fc fusion protein (human Sp35 residues 1-532 fused to hinge and Fc of human IgG1) (human, UniProt Q96FE5 40-538); assay: ELISA
T2 construct: ran as a dimer under non-reducing conditions; also called LINGO-1-Ig; not shown: hinge and Fc region of human IgG1
T2 sequence: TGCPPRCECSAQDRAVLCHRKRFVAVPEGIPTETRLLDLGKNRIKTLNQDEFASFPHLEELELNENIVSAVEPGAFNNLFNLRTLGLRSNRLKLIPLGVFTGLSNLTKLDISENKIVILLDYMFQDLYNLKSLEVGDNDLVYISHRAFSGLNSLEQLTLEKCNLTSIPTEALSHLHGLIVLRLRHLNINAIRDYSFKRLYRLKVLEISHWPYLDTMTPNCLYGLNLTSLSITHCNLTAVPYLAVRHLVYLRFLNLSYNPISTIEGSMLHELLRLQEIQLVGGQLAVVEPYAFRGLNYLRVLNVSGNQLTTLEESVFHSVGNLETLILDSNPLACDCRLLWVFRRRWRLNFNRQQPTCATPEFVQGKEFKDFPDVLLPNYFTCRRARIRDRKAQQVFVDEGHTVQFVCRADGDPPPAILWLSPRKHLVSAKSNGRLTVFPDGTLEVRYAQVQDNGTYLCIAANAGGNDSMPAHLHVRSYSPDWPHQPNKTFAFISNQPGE
Description: In order to determine which regions of the Sp35 polypeptide were bound by the various hybridoma- and phage display-derived monoclonal antibodies produced in Example 2, an ELISA assay was performed using a panel of truncated Sp35 polypeptides, each fused to the hinge and Fc regions of IgG1 by the methods described in Example 1. […] Ovalbumin and BSA were used as controls. […] The affinity of these latter antibodies for mouse and rat Sp35 was restored to the level seen using human Sp35 when amino acid 419 of the mouse or rat Sp35 is changed from histidine (H) to arginine (R). Arginine is the amino acid at position 419 in human Sp35. […] AP substrate was then developed by 10 mg/ml 4NPP in 0.1 M Glycine, 1 mM MgCl₂, 1 mM ZnCl₂, pH 10.5, and read at O.D. 405.

[4] = biological target: T3, human Sp35, full-length, in cell lysate (immunoprecipitation, Western) (human, UniProt Q96FE5 40-620); assay: IP
T3 construct: also called huSp35; hLINGO-1
T3 sequence: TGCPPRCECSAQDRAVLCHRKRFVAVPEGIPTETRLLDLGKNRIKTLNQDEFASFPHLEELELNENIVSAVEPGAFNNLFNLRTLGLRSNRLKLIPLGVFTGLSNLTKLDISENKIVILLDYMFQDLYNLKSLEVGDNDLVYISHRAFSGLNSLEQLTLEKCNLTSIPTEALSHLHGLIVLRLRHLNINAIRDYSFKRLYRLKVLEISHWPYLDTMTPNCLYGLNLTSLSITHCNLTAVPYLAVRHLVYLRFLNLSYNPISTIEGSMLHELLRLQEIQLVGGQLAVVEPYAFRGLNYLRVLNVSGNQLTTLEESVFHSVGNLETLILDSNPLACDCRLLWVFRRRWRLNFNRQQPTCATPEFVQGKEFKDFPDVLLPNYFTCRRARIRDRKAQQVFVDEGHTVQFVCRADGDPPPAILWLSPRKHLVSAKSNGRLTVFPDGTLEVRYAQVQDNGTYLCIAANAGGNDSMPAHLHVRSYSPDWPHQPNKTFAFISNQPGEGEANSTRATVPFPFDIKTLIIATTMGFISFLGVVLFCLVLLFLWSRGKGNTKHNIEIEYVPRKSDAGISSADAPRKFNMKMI
Description: (§1) To perform the immunoprecipitation, COS-1 cells expressing Sp35, fused to a hemaglutinin (HA) tag on the N-terminus, were produced by transiently transfecting COS-1 cells with a DNA construct which expresses the full-length Sp35 protein with an HA tag. Cells were harvested 48 hr after transfection and were lysed in 1 ml lysis buffer (50 mM HEPES, pH 7.5, 150 mM NaCl, 1.5 mM MgCl₂, 1 mM EGTA, 1% Triton X-100 and 10% glycerol) for 30 min at 4° C. After centrifugation at 14,000×g for 15 min, the supernatants were incubated with ProteinA/G-Sepharose beads (Santa Cruz) at 4° C. for 1 hr, and then incubated at 4° C. for 1 hr with either the 1A7 or the 2F3 anti-Sp35 murine monoclonal antibodies. The beads were washed 3 times with lysis buffer, boiled in Laemmli sample buffer, subjected to 4-20% SD S-PAGE, and analyzed by Western blotting using an antibody which recognizes the HA tag. As shown on the SDS-PAGE gel, monoclonal antibodies 1A7 and 2F3, immunoprecipitated human and murine Sp35 (FIG. 1). […] Similarly, monoclonal antibodies 1G7, 2B10, 2F3, 3P4C2.2D2, 3P4C8.2G9, Li01, Li03, Li05, Li06, Li07, Li08, Li11, Li12, 7P1D5.1G9 and 3B5.2 immunoprecipitate human or mouse or human and mouse Sp35 (See Table 3B and 3C). Additionally, Li08 immunoprecipitates AP-Sp35 and monoclonal antibodies 1B6.4 and 3E3.1 immunoprecipitate endogenous Sp35 (See Table 3B).

[5] = biological target: T4, human Sp35 protein expressed on transfected cells (human, UniProt Q96FE5 40-620); assay: IHC, transfected cells
T4 construct: also called huSp35; hLINGO-1
T4 sequence: T3 sequence

[6] = biological target: T4, human Sp35 protein expressed on …; assay: FACS, stable CHO
[7] = biological target: T5, mouse Sp35 protein expressed on transfected cells (mouse, UniProt Q9D1T0 36-614); assay: FACS, stable CHO
T5 construct: whole, on cells; also called mSp35; mLINGO-1
T5 sequence (looked up): T1 sequence (looked up)

Ig region of Sp35 = biological target: T6, Ig region of Sp35 (Homo sapiens (Human), UniProt Q96FE5 423-538, limits assumed); assay: ELISA
T6 sequence: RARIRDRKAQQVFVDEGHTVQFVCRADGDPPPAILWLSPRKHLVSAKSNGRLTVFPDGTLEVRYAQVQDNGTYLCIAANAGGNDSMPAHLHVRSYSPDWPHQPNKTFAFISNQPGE

[8] = biological target: T1, mouse Sp35 in cell lysate …; assay: IP; remark: listed apart in the source
Description: as §1

B1: 80-D02 (Dli34) Fab (Fab, V domains shown)
VH: EVQLLESGGGLVQPGGSLRLSCAASGFTFSNYEMYWVRQAPGKGLEWVSGIYSSGGITVYADSVKGRFTISRDNSKNTLYLQMNSLRAEDTAVYYCARAAILDWYFDLWGRGTLVTVSS
VL: DIQMTQSPSSLSASVGDRVTITCHASQDISNYLSWYQQKPGKAPKLLIYDAFNLETGVPSRFSGSGSGTDFTFTISSLQPEDFATYYCQHYDNLPFTFGPGTRVAIR
notes: human
- binding result [1]: binds

B2: D05 (full-length antibody with Li05 variable region) (antibody, V domains shown)
VH: EVQLLESGGGLVQPGGSLRLSCAASGFTFSAYAMGWVRQAPGKGLEWVSSIVSSGGYTDYADSVKGRFTISRDNSKNTLYLQMNSLRAEDTAVYYCAREGDHNAFDIWGQGTMVTVSS
VL: QSVLTQPPSVSVAPGQTARISCGGDNIGSKSVHWYQQRPGQAPVLVVYDDYDRPSGIPERFSGSNSGDTAILTITRVEVGDEADFYCQVRDSRTEERVFGGGTKVTVL
- FACS on stable CHO [2]: 5.5 nM

B3: 80-A08 (Dli33) Fab (Fab, V domains shown)
VH: EVQLLESGGGLVQPGGSLRLSCAASGFTFSIYPMFWVRQAPGKGLEWVSWIGPSGGITKYADSVKGRFTISRDNSKNTLYLQMNSLRAEDTATYYCAREGHNDWYFDLWGRGTLVTVSS
VL: DIQMTQSPGTLSLSPGERATLSCRASQSVSSYLAWYQQKPGQAPRLLIYDASNRATGIPARFSGSGSGTEFTLTISSLQSEDFAVYYCQQYDKWPLTFGGGTKVEIK
notes: human
- binding result [1]: binds

B4: 2F3 monoclonal antibody (antibody, mouse IgG2a, V domains shown)
VH: EVKLEESGGGLVQPGGSMKLSCAASGFTFSDAWLDWVRQSPEKGLEWVAEIRSKANNHATNYAESVKGRFTISRDDSKSSVYLQMNSLRAEDTGIYFCTPSFAYWGQGTTVTVSS
VL: DIQMTQSPASLSASVGETVTITCRASGNIYNYLAWFQQKQGKSPQLLVYNAKTLPDGVPSRFSGSGSGTQYFLKINSLQPEDFGSYYCQHFWAIPYTFGGGTKLEIK
notes: murine IgG2a
- binding result [3]: binds
- binding result [4]: binds
- binding result [5]: binds

B5: 1A7 Fab (Fab, V domains shown)
VH: QVQLVQSGPELKKPGETVKISCKASGYTFTNYGMNWVKQAPGKGLKWMGWINTDTGEPTYTEDFQGRFAFSLETSASTVYLQFNNLKNEDTATYFCAREGVHFDYWGQGTTVTVSS
VL: QIVLTQSPAIMSASPGEKVTMTCSASSSVSYMHWYQQKSGTSPKRWIYDTSKLASGVPARFSGSGSGTSYSLTISSMEAEDAATYYCQQWSSNPFTFGSGTKLEIK
notes: Fab of murine IgG1/kappa 1A7
- FACS on stable CHO [6]: ~1 nM

B6: 3B5.2 monoclonal antibody (ATCC PTA-8106) (antibody, mouse IgG1, V domains shown)
VH: QVQLQQPGAELVRPGTSVKLSCRASGYTFTSYWMHWVKQRPGQGLEWIGVIDPSDSYTNYNQKFRGKATLTVDTSSSTAYMQLSSLTSEDSAVYYCARPYYGSHWFFDVWGTGTTVTVSS
VL: B5 VL with S28R, M32V, I47L, K52N, S62G, S64N, S92T, F95P, S99G
notes: murine IgG1/kappa; VL is named for 3B5.2; also called 3B5.5
- FACS on stable CHO [7]: 0.4 nM
- FACS on stable CHO [6]: < 0.4 nM
- binding result (Ig region of Sp35): no binding

Further lines, results first:

- binding result [8]: binds
- binding result [4]: binds
B7: 30-C12 (Li01) Fab (Fab, V domains shown)
VH: EVQLLESGGGLVQPGGSLRLSCAASGFTFSKYQMTWVRQAPGKGLEWVSSIYPSGGNTVYADSVKGRFTISRDNSKNTLYLQMNSLRAEDTAVYYCASGTTEAVFDYWGQGTLVTVSS
VL: DIQMTQSPSSLSASVGDRVTITCQASQDISNYLNWYQQKPGKAPKLLIYDASNLETGVPSRFSGSGSGTDFTLTISSLQPEDFATYYCQQADRFPAVTFGGGTKVEIK
notes: human, kappa; also called Dli01

- binding result [8]: binds
B8: 30-B01 (Li11) Fab (Fab, V domains shown)
VH: EVQLLESGGGLVQPGGSLRLSCAASGFTFSSYAMYWVRQAPGKGLEWVSSISTSGGYTGYADSVKGRFTISRDNSKNTLYLQMNSLRAEDTAVYYCARDTSDNDYYYMDVWGKGTTVTVSS
VL: DIQMTQSPSSVSAPIGDRVTITCRASQEIANYLAWYQQKPGKAPKLLIYDTYTLQTDVPPRFSGSGSGTDFTLTISSLQPEDTATYFCQQADIFPLSFGGGTKVEIK
notes: human, kappa; also called Li011; Dli11
